This note sets out measurements from the supplement of paper PMC10567573.

The data set can be described thus: protein stability index of a GFP-peptide fusion (GPS, HEK-293T) (PSI 1-6); higher = more stable.
The mark [1] stands for this setting: treatment: DMSO, c terminus: a fixed tail appended.
The mark [2] stands for this setting: treatment: MLN4924 1 uM, 8 h, c terminus: a fixed tail appended.
Where [3] appears, read: treatment: DMSO, c terminus: native.
The mark [4] stands for this setting: treatment: MLN4924 1 uM, 8 h, c terminus: native.

± gives the standard deviation.
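Note: 24-mer peptide tiles fused after GFP, lentivirally expressed, FACS-sorted into six equal bins by GFP/DsRed ratio, decoded by Illumina sequencing, PSI is the read-weighted mean bin number.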

For the sequence RKVTDSISKSLELCNEISLSEIKD [DLC1], the protein stability index was determined as 4.136 ± 0.019 under setting [1] and 4.26 ± 0.11 under setting [2].
Regarding RLCAPLFRNIKQEPFSARVLVLCV [SOAT1], the protein stability index amounted to 2.73 ± 0.84 under setting [1] and 2.85 ± 1.4 under setting [2].
For RLDGQQEPQPFVTSDVYSSDAAFG [MYORG], in that order: 4.56 ± 0.26 and 4.63 ± 0.14.
In the same order, the values of RLFEDVRSWMFRRGPLNSDRSDYF [TRIM43] are 2.54 ± 0.42 and 2.63 ± 0.13.
For the sequence RLGRCMRRLRDMVERPHSGLPGKV [KCNG1], the protein stability index under setting [1] was 2.4 ± 0.17 and the protein stability index under setting [2] amounted to 2.69 ± 0.24.
For RLLALIYLAHASDVLENAFAPLLD [GOLPH3], the protein stability index by setting is: under setting [1], 2.65 ± 0.48; under setting [2], 2.7 ± 0.71.
In the same order, the values of RLLDHQDNILSLINVNDLSFVTGS [WDR41] are 2.22 ± 0.28 and 2.51 ± 0.3.
For RLLGTAGTEEKKKLIRDFDEKQQE [VTI1B], in that order: 5.06 ± 0.15 and 5.11 ± 0.33.
In the case of RMKETQKSIYYITGESKEQVANSA [HSP90AB1], the protein stability index by setting is: under setting [1], 4.07 ± 0.34; under setting [2], 4.2 ± 0.25.
For RMRYEGVVDIFQTVKMLRTQRPAM [PTPRD], in that order: 2.18 ± 0.18 and 2.38 ± 0.29.
In the same order, the values of RNLAKRRRTYLGGAAGRSQEPEVP [RSPH3] are 4.38 ± 0.26 and 4.32 ± 0.2.
For RPPTPLFIPAKTGKDVATQILEGE [RSPH3], in that order: 4.82 ± 0.15 and 5.01 ± 0.11.
Regarding RPRGKERHKSGVHQPPQAGAGDVV [LYSMD4], the protein stability index by setting is: under setting [1], 5.07 ± 0.27; under setting [2], 5.07 ± 0.057.
In the same order, the values of RQETVDCLKKFNARRKLKGAILTT [CAMK2A] are 3.15 ± 0.26 and 3.33 ± 0.24.
For RQVPGSDPACYEFLWGPRALVETS [MAGEA3], in that order: 3.11 ± 0.23 and 3.04 ± 0.37.
In the same order, the values of RRETVLFTDYGLAALAVNTSILSR [RNF208] are 2.09 ± 0.43 and 2.12 ± 0.18.
In the case of RRFNENAADRHINFCKEQAARISN [ZC2HC1A], the protein stability index reads like this: under setting [1], 2.56 ± 0.17; under setting [2], 2.51 ± 0.39.
In the same order, the values of RRGIGGIFFDDLDSPSKEEVFRFV [CPOX] are 2.28 ± 0.2 and 2.64 ± 0.27.
For RRKRTYWNDSCGEDMEASDYELED [WEE1], in that order: 4.37 ± 0.3 and 4.92 ± 0.27.
RRPEVDPLPFPGPFPAGPLAVAGG [ESRRA]: the protein stability index is, setting by setting: under setting [1], 3.56 ± 0.21; under setting [2], 3.71 ± 0.24.
On to RSGHTQTDYINASFMDGYKQKNAY [PTPN9], for which the protein stability index runs as follows: under setting [1], 3.52 ± 0.2; under setting [2], 3.61 ± 0.18.
In the same order, the values of RTELVEQAFRAIDRADYYLEEFKE [PCMTD2] are 4.1 ± 0.12 and 4.12 ± 0.19.
For RTHINAVVAKIQAKIPGAKRHAE [RTN1], the protein stability index runs as follows: under setting [3], 2.74 ± 0.25; under setting [4], 3.04 ± 0.36.
As for RTMRLWNIEEIDEIPLVIKYKKAV [WDR88], the protein stability index came to 2.3 ± 0.4 under setting [1] and 2.26 ± 0.31 under setting [2].
As to RTYRYSNRYCGGPGPPITDCEMNS [DYRK1B], the protein stability index runs as follows: under setting [1], 2.67 ± 0.23; under setting [2], 2.56 ± 0.11.
In the same order, the values of RVLMYGSELDADHPGFKDNVYRKR [TPH1] are 3.59 ± 0.11 and 3.8 ± 0.29.
In the same order, the values of RVYNNTLTYGEVRNSKASAYCLDQ [GALNT9] are 2.98 ± 0.16 and 3.07 ± 0.31.
In the same order, the values of RYIIFKRNTLNQPCSGSVSLQPRR [GMCL1] are 2.27 ± 0.22 and 2.36 ± 0.43.
Regarding RYRGRGSEEYRAPRPQSEESWDEE [CHGB], the protein stability index stood at 5.28 ± 0.51 under setting [1] and 5.34 ± 0.33 under setting [2].
In the case of SALEEAFRRFAVHGDARATGREMH [TPPP], the protein stability index is 3.22 ± 0.38 under setting [1] and 3.12 ± 0.12 under setting [2].
As for SDPDCSMRPTLIDLLPTFRHTLQK [FBXO39], the protein stability index stood at 3.33 ± 0.27 under setting [1] and 3.45 ± 0.28 under setting [2].
In the same order, the values of SDTIYSYVRPERLSPISHGNTIAL [TCF25] are 2.37 ± 0.22 and 2.56 ± 0.31.
For SEDGSYGTDVTRCICGFTHDDGYM [KMT2E], in that order: 3.33 ± 0.42 and 3.36 ± 0.34.
For SEDWTMEERFRPLTFHGLILRSQL [CLCN6], in that order: 2.32 ± 0.13 and 2.23 ± 0.18.
In turn, SEEQFRQRSPLGGDVLHAHLDIWK [SPDEF] yielded a protein stability index under setting [1] of 3.34 ± 0.36 and a protein stability index under setting [2] of 3.27 ± 0.1.
With SEFQAALSRKVAKLVHFLLLKYRA [MAGEA6], the protein stability index is 2.45 ± 0.56 under setting [1] and 2.13 ± 0.29 under setting [2].
On to SEIRCDLERQNQEYQVLLDVKARL [KRT36], for which the protein stability index under setting [1] came to 3.38 ± 0.19 and the protein stability index under setting [2] was determined as 3.34 ± 0.2.
For SFLEQIMAPLQPSTSRAHKLPSRR [FAM189A2], in that order: 2.8 ± 0.4 and 3.1 ± 0.3.
Take SFLQNAVLAYVQASPVRTLSPPK [LRRC45]: the protein stability index was found to be 2.3 ± 0.32 under setting [3] and 2.1 ± 0.18 under setting [4].
With SFSRPADLDLIQSTPFKPLALKTP [MFF], the protein stability index by setting is: under setting [1], 3.19 ± 0.46; under setting [2], 3.5 ± 0.048.
In the same order, the values of SFTLEEEEEGGEEEEEAAMYEEEM [FAM50A] are 5.47 ± 0.43 and 5.36 ± 0.2.
The sequence SGEEFYMLTRRVLQLETVLEGVVS [PKD2L1] had a protein stability index under setting [1] of 2.17 ± 0.45 and a protein stability index under setting [2] of 2.56 ± 0.17.
For SGEVLNGAAVVRPPGHHAEQDAAC [HDAC6], in that order: 5.32 ± 0.31 and 5.13 ± 0.14.
In the same order, the values of SGSGFGSVSWWGLSPALDLQAESP [DNAAF3] are 2.69 ± 0.56 and 2.43 ± 0.097.
Regarding SGWIFFYVPSSESFIIYLKNIVIA [P2RY14], the protein stability index was found to be 3.26 ± 0.53 under setting [1] and 3.09 ± 0.88 under setting [2].
In the same order, the values of SHDPQSSRGSRRRRRQRSEKKKAH [KCNA4] are 5.38 ± 0.53 and 5.38 ± 0.23.
For SIDKDEEFAGSSPQSSKSTVVKSL [FAN1], in that order: 5.165 ± 0.042 and 5.27 ± 0.27.
Turning to SKAPVLTYGQPKQAPPADFIPAHV [EFHC1], the protein stability index reads like this: under setting [1], 3.93 ± 0.18; under setting [2], 4.1 ± 0.25.
For SKGQPRSQEESEEGEEDATSEVDK [CHGB], in that order: 5.59 ± 0.21 and 5.4 ± 0.19.
For SKIDALSSEKLNLQKDLETRPTQH [CEP70], in that order: 4.71 ± 0.29 and 4.71 ± 0.073.
In the same order, the values of SKIGSTDNIKYQPKGGQVQIVTKK [MAP2] are 4.37 ± 0.17 and 4.63 ± 0.18.
On to SKRLYGVYDNEKKLQLQLNETKSQ [PLD5], for which the protein stability index worked out at 4.19 ± 0.27 under setting [1] and 4 ± 0.18 under setting [2].
For the sequence SKSLMTSVPMNGTSIQWKNHDQNN [EDNRA], the protein stability index turned out to be 4.25 ± 0.045 under setting [1] and 4.41 ± 0.18 under setting [2].
In the same order, the values of SKYGIINLQSLKTPTLKVFMHENL [DCAF4] are 1.8 ± 0.43 and 2.03 ± 0.26.
For the sequence SLAIFSEELDGLCFKGELPLRAVH [PLEKHN1], the protein stability index is, setting by setting: under setting [1], 2.42 ± 0.13; under setting [2], 2.46 ± 0.43.
For SLELDKMAHGYGEESEEERGLEPG [CHGB], in that order: 5.49 ± 0.46 and 5.41 ± 0.19.
For SLGIELHCNVSNILHMNGSQSSTY [ZNF396], in that order: 2.18 ± 0.38 and 2.16 ± 0.27.
As for SLHPESGQENDATSPHFSTRHEGS [CD69], the protein stability index by setting is: under setting [1], 5.4 ± 0.23; under setting [2], 5.33 ± 0.14.
In the same order, the values of SLKFKSRVPQTWSKRLYGVYDNEK [PLD5] are 2.55 ± 0.39 and 2.71 ± 0.74.
For SLLGEPCAGPGFTHNIAHGSLGFE [SPAG8], in that order: 3.03 ± 0.45 and 2.92 ± 0.4.
For SLLPGAVEQPQPQFISRFLEGQSG [NEK8], in that order: 3.5 ± 0.18 and 3.73 ± 0.16.
Regarding SLQPRRSIAFRLRLASFDSSGKLI [GMCL1], the protein stability index turned out to be 2.62 ± 0.44 under setting [1] and 2.39 ± 0.27 under setting [2].
For SLTDISQPTIVEALLGYEMVQVAC [NEK8], in that order: 2.73 ± 0.64 and 2.4 ± 0.5.
For SNFYTVAVTSLSSQIQYMNTVVST [TMEM106C], in that order: 3.13 ± 0.59 and 3.11 ± 0.49.
With SNITSETGFRTISSLEEIVEKQGD [TMEM192], the protein stability index was 5.44 ± 0.19 under setting [1] and 5.35 ± 0.15 under setting [2].
Take SNIVIMLVGNKSDLRHLRAVPTDE [RAB11A]: the protein stability index turned out to be 2.42 ± 0.34 under setting [1] and 2.25 ± 0.28 under setting [2].
In the same order, the values of SNKKMLLLVGGLPPGPDRLPSNLV [KLHL14] are 2.17 ± 0.19 and 2.34 ± 0.22.
Take SPELQEEFGYNAETQKLLCKNGET [ARFIP2]: the protein stability index by setting is: under setting [1], 5.31 ± 0.29; under setting [2], 5.46 ± 0.11.
For SPICLSTSLSLAQVGAKGDTANEI [SERPINB5], in that order: 4.68 ± 0.15 and 4.54 ± 0.21.
For SPNFDGWFKTRRKEMTQKLEALHL [DENND6A], in that order: 2.91 ± 0.18 and 3.2 ± 0.41.
For SQGNFEGNFESLDLAEFAKKQPWW [FUNDC2], in that order: 3.63 ± 0.27 and 3.63 ± 0.46.
In the case of SQLDEDEHGLHTKYIHRMMQIEFI [TRAF3IP2], the protein stability index amounted to 2.44 ± 0.1 under setting [1] and 2.56 ± 0.34 under setting [2].
